# Measured values reported in US20050239134.
# Biological target: TGF-beta-1 (TGF-β1 homodimer) (Homo sapiens?) (UniProt P01137)
# Assay: EMSA
# Conditions: PS at dA and dC (5' of A and C; from dATP(αS)/dCTP(αS)); apparent; naive library control; room temp 30 min
# TGF-beta-1 (TGF-β1 homodimer) (Homo sapiens?), sequence (P01137 279-390): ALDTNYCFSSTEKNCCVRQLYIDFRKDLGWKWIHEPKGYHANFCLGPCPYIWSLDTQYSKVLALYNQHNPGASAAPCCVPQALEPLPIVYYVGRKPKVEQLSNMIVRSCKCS
sequence,measurement,value
CAGTCCGGATGCTCTAGAGTGACNNNNNNNNNNNNNNNNNNNNNNNNNNNNNNCGAATCTCGTGAAGCCGAGCG [initial 74-mer N30 thiophosphate ssDNA library],Kd,11 µM
